Source: patent US20050124036

What was measured:
[1] = target: T1, streptokinase (S8026) (Sigma, Deisenhofen), P00779
T1 chain: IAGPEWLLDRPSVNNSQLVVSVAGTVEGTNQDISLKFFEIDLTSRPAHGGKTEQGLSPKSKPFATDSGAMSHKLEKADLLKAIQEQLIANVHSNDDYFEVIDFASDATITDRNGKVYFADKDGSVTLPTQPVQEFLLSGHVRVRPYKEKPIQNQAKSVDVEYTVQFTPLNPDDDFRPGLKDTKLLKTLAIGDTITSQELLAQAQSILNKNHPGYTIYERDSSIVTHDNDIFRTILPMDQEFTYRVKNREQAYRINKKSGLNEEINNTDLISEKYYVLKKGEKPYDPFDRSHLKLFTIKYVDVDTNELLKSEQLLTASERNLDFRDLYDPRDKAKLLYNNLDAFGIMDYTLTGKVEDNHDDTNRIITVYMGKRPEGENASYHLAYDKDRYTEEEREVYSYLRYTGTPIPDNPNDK

[2] = target: T2, plasminogen according to the present invention (20 mg/ml, Example 8)
T2 chain: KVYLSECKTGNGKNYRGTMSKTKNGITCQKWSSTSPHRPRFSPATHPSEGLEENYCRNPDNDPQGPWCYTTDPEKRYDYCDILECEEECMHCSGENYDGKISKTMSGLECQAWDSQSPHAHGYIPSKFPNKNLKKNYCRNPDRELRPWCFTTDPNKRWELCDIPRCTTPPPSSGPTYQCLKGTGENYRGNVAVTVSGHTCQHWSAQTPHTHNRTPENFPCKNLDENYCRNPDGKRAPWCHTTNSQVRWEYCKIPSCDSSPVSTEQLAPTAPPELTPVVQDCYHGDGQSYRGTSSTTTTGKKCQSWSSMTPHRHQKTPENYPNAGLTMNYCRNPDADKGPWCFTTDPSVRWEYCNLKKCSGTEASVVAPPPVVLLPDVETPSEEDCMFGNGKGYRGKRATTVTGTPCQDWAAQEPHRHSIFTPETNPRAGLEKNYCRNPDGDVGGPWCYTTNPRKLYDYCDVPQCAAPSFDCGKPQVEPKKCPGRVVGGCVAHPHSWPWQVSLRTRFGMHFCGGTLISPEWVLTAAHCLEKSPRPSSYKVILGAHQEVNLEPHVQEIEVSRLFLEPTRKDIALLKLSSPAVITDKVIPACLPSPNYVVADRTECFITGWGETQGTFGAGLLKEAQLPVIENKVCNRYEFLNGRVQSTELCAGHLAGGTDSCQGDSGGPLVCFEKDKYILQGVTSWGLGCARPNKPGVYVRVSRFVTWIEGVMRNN

B1: recombinant human Lys-plasminogen secreted by Pichia pastoris carrying pSM54.2, pAC37.1 or pJW9.1 (alpha-factor prepropeptide joined by a Kex2 and two Ste13 … (protein)
chain: KVYLSECKTGNGKNYRGTMSKTKNGITCQKWSSTSPHRPRFSPATHPSEGLEENYCRNPDNDPQGPWCYTTDPEKRYDYCDILECEEECMHCSGENYDGKISKTMSGLECQAWDSQSPHAHGYIPSKFPNKNLKKNYCRNPDRELRPWCFTTDPNKRWELCDIPRCTTPPPSSGPTYQCLKGTGENYRGNVAVTVSGHTCQHWSAQTPHTHNRTPENFPCKNLDENYCRNPDGKRAPWCHTTNSQVRWEYCKIPSCDSSPVSTEQLAPTAPPELTPVVQDCYHGDGQSYRGTSSTTTTGKKCQSWSSMTPHRHQKTPENYPNAGLTMNYCRNPDADKGPWCFTTDPSVRWEYCNLKKCSGTEASVVAPPPVVLLPDVETPSEEDCMFGNGKGYRGKRATTVTGTPCQDWAAQEPHRHSIFTPETNPRAGLEKNYCRNPDGDVGGPWCYTTNPRKLYDYCDVPQCAAPSFDCGKPQVEPKKCPGRVVGGCVAHPHSWPWQVSLRTRFGMHFCGGTLISPEWVLTAAHCLEKSPRPSSYKVILGAHQEVNLEPHVQEIEVSRLFLEPTRKDIALLKLSSPAVITDKVIPACLPSPNYVVADRTECFITGWGETQGTFGAGLLKEAQLPVIENKVCNRYEFLNGRVQSTELCAGHLAGGTDSCQGDSGGPLVCFEKDKYILQGVTSWGLGCARPNKPGVYVRVSRFVTWIEGVMRNN
- plasminogen activity after streptokinase activation, fermentation for 250 h, KM71H/pJW9.1-3 [1]: a plasminogen activity of 1375 U/l
- plasminogen activity of culture supernatant after activation with streptokinase, 72 h of induction, KM71H/pSM54.2-1/1 [1]: 2 U/l
- plasminogen activity of culture supernatant after activation with streptokinase, 72 h of induction, KM71H/pSM54.2-1/2 [1]: 8 U/l
- plasminogen activity of culture supernatant after activation with streptokinase, 72 h of induction, KM71H/pSM54.2-1/3 [1]: 6 U/l
- plasminogen activity of culture supernatant after activation with streptokinase, 118 h of induction, KM71H/pSM54.2-1/1 [1]: 8 U/l
- plasminogen activity of culture supernatant after activation with streptokinase, 118 h of induction, KM71H/pSM54.2-1/2 [1]: 17 U/l
- plasminogen activity of culture supernatant after activation with streptokinase, 118 h of induction, KM71H/pSM54.2-1/3 [1]: 13 U/l
- plasminogen activity of culture supernatant after activation with streptokinase, 120 h of induction, KM71/pAC37.1-3/1 [1]: an activity of 120 U/l
- plasminogen activity of culture supernatant after activation with streptokinase, 216 h of induction, KM71/pAC37.1-3/1 [1]: an activity of 190 U/l
- plasminogen activity of culture supernatant after activation with streptokinase, BSM minimal medium, 120 h of induction, KM71/pAC37.1-3/1 [1]: a plasminogen activity of 193 U/l
- plasminogen activity of culture supernatant after activation with streptokinase, BSM minimal medium, 168 h of induction, KM71/pAC37.1-3/1 [1]: 289 U/l

B2: recombinant human Lys-plasminogen secreted by Pichia pastoris KM71H/pMHS476.1 (alpha-factor prepropeptide joined by a Kex2 cleavage site) (protein)
chain: KVYLSECKTGNGKNYRGTMSKTKNGITCQKWSSTSPHRPRFSPATHPSEGLEENYCRNPDNDPQGPWCYTTDPEKRYDYCDILECEEECMHCSGENYDGKISKTMSGLECQAWDSQSPHAHGYIPSKFPNKNLKKNYCRNPDRELRPWCFTTDPNKRWELCDIPRCTTPPPSSGPTYQCLKGTGENYRGNVAVTVSGHTCQHWSAQTPHTHNRTPENFPCKNLDENYCRNPDGKRAPWCHTTNSQVRWEYCKIPSCDSSPVSTEQLAPTAPPELTPVVQDCYHGDGQSYRGTSSTTTTGKKCQSWSSMTPHRHQKTPENYPNAGLTMNYCRNPDADKGPWCFTTDPSVRWEYCNLKKCSGTEASVVAPPPVVLLPDVETPSEEDCMFGNGKGYRGKRATTVTGTPCQDWAAQEPHRHSIFTPETNPRAGLEKNYCRNPDGDVGGPWCYTTNPRKLYDYCDVPQCAAPSFDCGKPQVEPKKCPGRVVGGCVAHPHSWPWQVSLRTRFGMHFCGGTLISPEWVLTAAHCLEKSPRPSSYKVILGAHQEVNLEPHVQEIEVSRLFLEPTRKDIALLKLSSPAVITDKVIPACLPSPNYVVADRTECFITGWGETQGTFGAGLLKEAQLPVIENKVCNRYEFLNGRVQSTELCAGHLAGGTDSCQGDSGGPLVCFEKDKYILQGVTSWGLGCARPNKPGVYVRVSRFVTWIEGVMRNN
- plasminogen activity of culture supernatant after activation with streptokinase (N-tosyl-Gly-Pro-Lys-pNA conversion), 72 h of induction, KM71H/pMHS476.1-1/1 [1]: 2 U/l
- plasminogen activity of culture supernatant after activation with streptokinase (N-tosyl-Gly-Pro-Lys-pNA conversion), 72 h of induction, KM71H/pMHS476.1-1/2 [1]: 2 U/l
- plasminogen activity of culture supernatant after activation with streptokinase (N-tosyl-Gly-Pro-Lys-pNA conversion), 72 h of induction, KM71H/pMHS476.1-1/3 [1]: 1 U/l
- plasminogen activity of culture supernatant after activation with streptokinase (N-tosyl-Gly-Pro-Lys-pNA conversion), 118 h of induction, KM71H/pMHS476.1-1/1 [1]: 7 U/l
- plasminogen activity of culture supernatant after activation with streptokinase (N-tosyl-Gly-Pro-Lys-pNA conversion), 118 h of induction, KM71H/pMHS476.1-1/2 [1]: 9 U/l
- plasminogen activity of culture supernatant after activation with streptokinase (N-tosyl-Gly-Pro-Lys-pNA conversion), 118 h of induction, KM71H/pMHS476.1-1/3 [1]: 8 U/l

B3: Clostripain (protein)
chain: NKNQKVTIMYYCDADNNLEGSLLNDIEEMKTGYKDSPNLNLIALVDRSPRYSSDEKVLGEDFSDTRLYKIEHNKANRLDGKNEFPEISTTSKYEANMGDPEVLKKFIDYCKSNYEADKYVLIMANHGGGAREKSNPRLNRAICWDDSNLDKNGEADCLYMGEISDHLTEKQSVDLLAFDACLMGTAEVAYQYRPGNGGFSADTLVASSPVVWGPGFKYDKIFDRIKAGGGTNNEDDLTLGGKEQNFDPATITNEQLGALFVEEQRDSTHANGRYDQHLSFYDLKKAESVKRAIDNLAVNLSNENKKSEIEKLRGSGIHTDLMHYFDEYSEGEWVEYPYFDVYDLCEKINKSENFSSKTKDLASNAMNKLNEMIVYSFGDPSNNFKEGKNGLSIFLPNGDKKYSTYYTSTKIPHWTMQSWYNSIDTVKYGLNPYGKLSWCKDGQDPEINKVGNWFELLDSWFDKTNDVTGGVNHYQW
- plasmin activity after activation [2]: 1.7 U/mg
